Test system: licensed KIR3DL1+ NK cells
Assay: NK cell degranulation (CD107α staining, flow cytometry) stimulated by patient-derived myeloma target cells
Format: cell-based, human
Settings: presence vs absence of SAR650984; myeloma target cells expressing HLA-Bw4-I80 ligand; FIG. 8
Description: The functional capacity of a patient's NK cells stimulated by pre-treatment patient-derived myeloma target cells was assessed in response to SAR650984, using flow cytometry (FIG. 8).

SAR650984: a humanized anti-CD38 antibody; comprises VH and VL CDR sequences set forth in SEQ ID NOs:1-6
Degranulation as measured by CD107α staining (surrogate marker for cytotoxicity): greatly enhanced degranulation

From patent US10617757B2, “Methods for treating multiple myeloma” (The Regents of the University of California, priority 2014, dated 2020)
